Results on eleven sequences are retold here after the supplement of paper PMC9170038.

The data set concerns MS2 coat protein. In words: apparent KD of MS2 coat protein; designed switch direction (-1 OFF switch, 1 ON switch): 1; higher = weaker reporter binding. Put shortly:
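For each design, the apparent KD is the median over clusters of curves fitted to normalised cluster fluorescence. Clusters held RNA switches with common flanks, transcribed on Illumina chips by stalled E. coli RNA polymerase. These were titrated with SNAP-549-labelled MS2 coat protein, doubling from 0.7 or 1.5 nM to 3 µM, without input, with 200 uM small-molecule ligand, or with an oligonucleotide input.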

Where [1] appears, read: Eterna round: R95, input ligand: FMN 200 uM.
Setting [2] is: Eterna round: R95, input ligand: microRNA oligo, concentration not stated.
The mark [3] stands for this setting: Eterna round: R95, input ligand: none.
Setting [4] is: input ligand: microRNA oligo, concentration not stated.

“UCUUGGUUUUUGCUCGUUUUUUGUGUUGAACAUGAGGAUCACCCAUGUAUUGUACGGUCCAAUUUAAUAAUGGUCCA [JMF 37] (puzzle: Sensor for hsa-mir-208a)”: the “apparent KD of MS2 coat protein” value amounted to 0.0289 µM under setting [1], 0.0157 µM under setting [2] and 0.0267 µM under setting [3].

For “UCUUGGUUUUUGCUCGUUUUUUGUGUUGAACAUGAGGAUCACCCAUGUAUUGUACGGUCCAGUUUGGUAAUGGUCCG [JMF 35] (puzzle: Sensor for hsa-mir-208a)”, the “apparent KD of MS2 coat protein” value came out at 0.025 µM under setting [1], 0.0149 µM under setting [2] and 0.0264 µM under setting [3].

With “UCUUGGUUUUUGCUCGUUUUUUGUGUUGAACAUGAGGAUCACCCAUGUAUUGUACGGUCCGAUUUAAUAAUGGUCCG [JMF 22] (puzzle: Sensor for hsa-mir-208a)”, the “apparent KD of MS2 coat protein” value was 0.0235 µM under setting [1], 0.0144 µM under setting [2] and 0.0255 µM under setting [3].

Take “UCUUGGUUUUUGCUCGUUUUUUGUGUUGAACAUGAGGAUCACCCAUGUAUUGUACGGUCCGGUUUAAUAAUGGUCCG [JMF 12] (puzzle: Sensor for hsa-mir-208a)”: the “apparent KD of MS2 coat protein” value under setting [1] worked out at 0.025 µM, the “apparent KD of MS2 coat protein” value under setting [2] was 0.0147 µM and the “apparent KD of MS2 coat protein” value under setting [3] worked out at 0.0263 µM.

Consider “UCUUGGUUUUUGCUCGUUUUUUGUGUUGAACAUGAGGAUCACCCAUGUAUUGUACGGUCCGGUUUAAUAGUGGUCCA [JMF 43] (puzzle: Sensor for hsa-mir-208a)”, for which the “apparent KD of MS2 coat protein” value stood at 0.0954 µM under setting [1], 0.0598 µM under setting [2] and 0.105 µM under setting [3].

In the case of “UCUUGGUUUUUGCUCGUUUUUUGUGUUGAACAUGAGGAUCACCCAUGUAUUGUACGGUCCGGUUUAGUAGUGGUCCG [JMF 17] (puzzle: Sensor for hsa-mir-208a)”, the “apparent KD of MS2 coat protein” value is 0.0257 µM under setting [1], 0.0166 µM under setting [2] and 0.0304 µM under setting [3].

Regarding “UCUUGGUUUUUGCUCGUUUUUUGUGUUGAACAUGAGGAUCACCCAUGUAUUGUACGGUCCGGUUUGGUAGUGGUCCG [JMF 16] (puzzle: Sensor for hsa-mir-208a)”, the “apparent KD of MS2 coat protein” value under setting [1] is 0.041 µM, the “apparent KD of MS2 coat protein” value under setting [2] was 0.0294 µM and the “apparent KD of MS2 coat protein” value under setting [3] worked out at 0.0536 µM.

As for “UGAACCUUCACAGGAUAUCAUGCGAAAAUUGCGUGAGAAGGGUGAAUGUGGUGUUCAUAGUUGCACAUGAGGAUCACCCAUGUA [SameState NG1 #52] (Eterna round: R96, puzzle: Same State NG 1)”, the “apparent KD of MS2 coat protein” value is, setting by setting: (input ligand: FMN 200 uM) 0.107 µM; under setting [4], 0.135 µM; (input ligand: none) 0.155 µM.

Turning to “UGAAUAAUGUUAGGAUAUACAUGAGGAAUCCUCGUAGAAGGAACAUGACAUGAGGAUCACCCAUGUAGCGCUCAGAAGAGCGCA [Mat - Same State NG 1 - JL mod - D50] (Eterna round: R96, puzzle: Same State NG 1)”, the “apparent KD of MS2 coat protein” value under setting [4] is 0.0734 µM.

As for “UGAAUAGUGAUAGGAUAUACAUGAGGAAUCCUCGUAGAAGGAUCACGACAUGAGGAUCACCCAUGUAGCCGUCAGAAGACGGCA [Mat - Same State NG 1 - JL mod - D60] (Eterna round: R96, puzzle: Same State NG 1)”, the “apparent KD of MS2 coat protein” value (input ligand: FMN 200 uM) was found to be 0.45 µM, the “apparent KD of MS2 coat protein” value under setting [4] was 0.345 µM and the “apparent KD of MS2 coat protein” value (input ligand: none) came to 2.61 µM.

Take “UGAAUAGUUACAGGAUAUGAGCCGUAAAUUGGGUCAGAAGGGUGGGUGUUCUGCGCGGUGUGUUACAUGAGGAUCACCCAUGUU [SameState NG1 #30] (Eterna round: R96, puzzle: Same State NG 1)”: the “apparent KD of MS2 coat protein” value (input ligand: FMN 200 uM) stood at 0.245 µM, the “apparent KD of MS2 coat protein” value under setting [4] amounted to 0.0998 µM and the “apparent KD of MS2 coat protein” value (input ligand: none) is 0.244 µM.
